One protein from publication PMC4122339, “Carbonic Anhydrase Generates CO2 and H^+ That Drive Spider Silk Formation Via Opposite Effects on the Terminal Domains” (PLoS Biology, 2014) can be followed below.

The series concerns the molecule itself. Kind of series: NMR structure; solution NMR at 298 K; 1 mM protein in 20 mM sodium phosphate pH 6.8, 20 mM NaCl; intermolecular NOEs from a 13C/15N-filtered NOESY on a 50% labelled / 50% unlabelled sample, used as distance restraints with an upper limit of 5 Å.

B1: Araneus ventricosus minor ampullate spidroin (MiSp) C-terminal domain, truncated construct (residues 31-150 of the 150-residue C-terminal part) (domain or fragment)
chain: VTSGGYGYGTSAAAGAGVAAGSYAGAVNRLSSAEAASRVSSNIAAIASGGASALPSVISNIYSGVVASGVSSNEALIQALLELLSALVHVLSSASIGNVSSVGVDSTLNVVQDSVGQYVG
modifications: uniformly 13C/15N-labelled (a mixed sample of 50% 13C/15N-labelled and 50% unlabelled protein was used for the intermolecular NOEs)
notes: C-terminal domain of minor ampullate spidroin (MiSp), Araneus ventricosus; residues 31-150 of the printed 150-residue construct; PDB 2MFZ would settle this; also called A. ventricosus MiSp CT; source: E. coli BL21 (DE3), minimal medium, purified (Ni-NTA, thrombin cleavage, Ni-NTA); not shown: His tag-Thioredoxin-His tag, N-terminal, cleaved
As for B1, the binding result is reported as “binds”.
